Binding result and Kd data for two molecules are collected here from US20250163136A1 (FRAUNHOFER GESELLSCHAFT ZUR F RDERUNG DER ANGEWANDTEN …, published 2025).

Numbered stars: 1 amine (or outer) side, 2 acyl side, 3 side chain; on linkers, the order of the positions; unused ones are H or OH. Square brackets hold non-standard residues; d marks the D form. * marks the point of attachment. Biotin = O=C1N[C@H]2[C@H](CS[C@H]2CCCCC(=O)*)N1; βAsp = O=C(O)[C@H](CC(=O)[*:2])N[*:1]; PEG = not defined here

Experiment [1] concerns the target T1, freshly dissolved Aβ(1-42).
T1 construct: Dot blot lanes 8 and 9 (with m12); also called monomeric peptides of Aβ
In words: dot blot. The procedure: (§1) 0.5 μg of recombinantly expressed TTR proteins (TTRwt (SEQ ID NO: 1), TTR-V30M (SEQ ID NO: 7), or TTR-V122I (SEQ ID NO: 8)), ATTR fibrils or 0.5 μg of either freshly dissolved Aβ(1-42) (SEQ ID NO: 9) or aggregated Aβ(1-42) with confirmed isoAsp-content (SEQ ID NO: 10) were spotted on nitrocellulose membranes. Membranes were blocked for 1 hour in blocking solution (5% (w/v) milk powder in TBS+0.05% (v/v) Tween-20 (Carl Roth)). […] Alkaline phosphatase-conjugated, anti-mouse or rabbit IgG antibodies (abeam) in combination with chromogenic substrates BCIP and NBT (Carl Roth) were subsequently used for detection.

Experiment [2] addresses T2, aggregated Aβ(1-42) with confirmed isoAsp-content (isoD7-Aβ(1-42)) (X at position 7 is L-isoAsp).
T2 construct: Aggregated amyloid fibrils; dot blot lanes 8 and 9 (with m11); also called isoD7-AB; aggregated Aβ1-42 (verified isoD content)
In words: dot blot. The procedure: as §1

Experiment [3] concerns the target T3, TTR(35-43)-PEG-Biotin (human, reading uncertain).
T3 construct: also called non-modified peptide TTR(35-43)
T3 peptide: {Biotin-PEG}-KAADDTWEP-NH2
Description: SPR, BIAcore 3000, 25 °C; antibody captured on goat anti-mouse IgG (CM5 chip), peptide injected (multicycle kinetics, 1 µM to 200 µM). The procedure:
(§2) Antibody binding kinetics to TTR(35-43)-PEG-Biotin (SEQ ID NO: 5) and isoD38-TTR(35-43)-PEG-Biotin (SEQ ID NO: 6) were analyzed by using SPR on a BIAcore 3000 device at 25° C. For this purpose, the surface of a CM5 sensor chip (Cytiva) was modified with a goat anti-mouse antibody using NHS/EDC chemistry. To immobilize the anti-mouse IgG, the carboxymethylated dextran surface of the sensor chip was activated by mixing 0.1 M N-hydroxysuccinimide (NHS) with 0.4 M N-ethyl-N′-(dimethylaminopropyl) carbodiimide hydrochloride (EDC) 1:1. EDC/NHS was applied to the sensor chip with a flow rate of 20 μL/min for 7 minutes. Goat anti-mouse IgG was diluted to 50 μg/mL in 10 mM sodium acetate, pH 5.5, and injected for 2×4 minutes contact time with a flow rate of 30 μL/min. Deactivation was done by applying 1 M ethanolamine pH 8.5 with a flow rate of 10 μL/min for 2×7 minutes contact time. About 20000 RU of the goat anti-mouse antibody were immobilized onto the chip surface.
(In general: Surface plasmon resonance follows binding to a sensor surface in real time, without labels.)

The target in experiment [4] is T4, isoD38-TTR(35-43)-PEG-Biotin (human, reading uncertain).
T4 construct: KAAXDTWEP; also called isoaspartate-containing TTR(35-43)-peptide
T4 peptide: {Biotin-PEG}-KAA[βAsp]DTWEP-NH2
Description: SPR, BIAcore 3000, 25 °C; antibody captured on goat anti-mouse IgG (CM5 chip), peptide injected (multicycle kinetics, 10 nM to 100 µM). The method, then: as §2

For experiment [5], the target named is T4, isoD38-TTR(35-43)-PEG-Biotin. In words: SPR, BIAcore 3000, 25 °C; antibody captured on goat anti-mouse IgG (CM5 chip), peptide injected (five consecutive injections, 2 nM to 512 nM). The procedure:
as §2

In experiment [6] the target is T3, TTR(35-43)-PEG-Biotin. Description: SPR, BIAcore 3000, 25 °C; antibody captured on goat anti-mouse IgG (CM5 chip), peptide injected (five consecutive injections, 512 nM to 131 µM). The method, then:
as §2

T1 sequence (peptide, as listed by the source): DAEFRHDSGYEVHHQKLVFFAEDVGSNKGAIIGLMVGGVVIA
T2 sequence (peptide, as listed by the source): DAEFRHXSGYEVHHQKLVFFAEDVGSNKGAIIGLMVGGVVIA

B1: monoclonal antibody 4D4 (antibody, V domains shown)
VH: QVQLQQSGAELMKPGASVKISCKAPGNTFSSRWIEWVKERPGHGLEWIGEIFPGNGNTNYNEKFKGKATFTADTSSNTAYIQFSSLASEDSGVYYCVSEDYWGQGTLVTVSS
VL: DIQMTQSPASLSASVGETVTITCRTSGNIRNSLAWYRQKQGKSPQLLVFNGKTLADGVPSRFSGSGSGTQYSLKINSLQPEDLGTYYCQHFWNIPFTFGSGTKLEIKR
notes: also called isoD38-TTR-specific antibody 4D4; TTR mAb 4D4
As for B1, the binding result in experiment [1] and in experiment [2] was “no binding (tested: 0.5 µg peptide spotted; antibody 1 µg/mL)” in each case. The Kd with TTR(35-43)-PEG-Biotin [3] was 29000 nM; in experiment [4], 124 nM.

B2: monoclonal antibody 2F2 (antibody, V domains shown)
VH: DVQLVESGGGLVQPGGSRKLSCAASGFTFSSFAMHWVRQAPDKGLEWVAFISSGSNTIYYADTVKGRFTVSRDNPKNTLFLQMTSLRSEDTAMYYCASNSYYGMDYWGQGTSVTVSS
VL: NIMMTQSPSSLAVSAGEKVTMSCKSSQSVLYSSNQKNYLAWYQQKPGQSPKLLIYWASTRESGVPDRFTGSGSGTDFTLTISSVQAEDLAVYYCHQYLSSRTFGAGTKLELKR
notes: also called isoD38-TTR-specific antibody 2F2; TTR mAb 2F2
With B2, the binding result in experiment [1] and in experiment [2] was “no binding (tested: 0.5 µg peptide spotted; antibody 1 µg/mL)” throughout. Moreover, the values for the Kd (in experiment [5]; with TTR(35-43)-PEG-Biotin [6]) were 1.55 nM and 719 nM, respectively.

One may read the Kd as the constant that tells how readily two partners part at equilibrium.
